From patent publication US20240076396A1

What was measured:
[1] = target: human GITR expressed on the cell surface (human) (UniProt Q9Y5U5); assay: flow cytometry, AF647 antibody at 200 nM; human primary CD8+ CD25+ T-cells, donor 8700C
[2] = target: cynomolgus monkey GITR expressed on the cell surface (Macaca fascicularis (cynomolgus monkey)); assay: flow cytometry, AF647 antibody at 200 nM; cynomolgus primary CD4+ CD69+ T-cells, donor 58947
[3] = target: Jurkat/hCD20 cells (human CD20, no GITR; negative control cell line) (human) (UniProt P11836); assay: flow cytometry on Jurkat/hCD20 control cells, 18 pM to 300 nM
[4] = target: human GITR expressed on the cell surface (human) (UniProt Q9Y5U5); assay: flow cytometry, AF647 antibody at 200 nM; human primary CD8+ CD25+ T-cells, donor 2700*
[5] = target: cynomolgus monkey GITR expressed on the cell surface (Macaca fascicularis (cynomolgus monkey)); assay: flow cytometry, AF647 antibody at 200 nM; cynomolgus primary CD8+ CD69+ T-cells, donor 58946
[6] = target: cynomolgus monkey GITR expressed on the cell surface (Macaca fascicularis (cynomolgus monkey)); assay: flow cytometry on Jurkat/hCD20/MfGITR cells, 18 pM to 300 nM
[7] = target: human GITR expressed on the cell surface (human) (UniProt Q9Y5U5); assay: flow cytometry on Jurkat/hCD20/hGITR cells; max MFI over secondary antibody alone
[8] = target: cynomolgus monkey GITR expressed on the cell surface (Macaca fascicularis (cynomolgus monkey)); assay: flow cytometry, AF647 antibody at 200 nM; cynomolgus primary CD4+ CD69+ T-cells, donor 58946
[9] = target: human GITR expressed on the cell surface (human) (UniProt Q9Y5U5); assay: flow cytometry, AF647 antibody at 200 nM; human primary CD4+ CD25+ T-cells, donor 2700*
[10] = target: cynomolgus monkey GITR expressed on the cell surface (Macaca fascicularis (cynomolgus monkey)); assay: flow cytometry, AF647 antibody at 200 nM; cynomolgus primary CD4+ CD69+ T-cells, donor 58945
[11] = target: cynomolgus monkey GITR expressed on the cell surface (Macaca fascicularis (cynomolgus monkey)); assay: flow cytometry, AF647 antibody at 200 nM; cynomolgus primary non-activated CD4+ CD69- T-cells, donor 58946
[12] = target: human GITR expressed on the cell surface (human) (UniProt Q9Y5U5); assay: flow cytometry, AF647 antibody at 200 nM; human primary non-activated CD8+ CD25- T-cells, donor 8700C
[13] = target: Jurkat/hCD20 cells (human CD20, no GITR; negative control cell line) (human) (UniProt P11836); assay: flow cytometry on Jurkat/hCD20 control cells; max MFI over secondary antibody alone
[14] = target: human GITR expressed on the cell surface (human) (UniProt Q9Y5U5); assay: flow cytometry, AF647 antibody at 200 nM; human primary CD4+ CD25+ T-cells, donor 7900C
[15] = target: cynomolgus monkey GITR expressed on the cell surface (Macaca fascicularis (cynomolgus monkey)); assay: flow cytometry, AF647 antibody at 200 nM; cynomolgus primary non-activated CD8+ CD69- T-cells, donor 58947
[16] = target: human GITR expressed on the cell surface (human) (UniProt Q9Y5U5); assay: flow cytometry, AF647 antibody at 200 nM; human primary CD4+ CD25+ T-cells, donor 26001
[17] = target: human GITR expressed on the cell surface (human) (UniProt Q9Y5U5); assay: flow cytometry, AF647 antibody at 200 nM; human primary non-activated CD4+ CD25- T-cells, donor 26001
[18] = target: human GITR expressed on the cell surface (human) (UniProt Q9Y5U5); assay: flow cytometry, AF647 antibody at 200 nM; human primary non-activated CD8+ CD25- T-cells, donor 7900C
[19] = target: human GITR expressed on the cell surface (human) (UniProt Q9Y5U5); assay: flow cytometry, AF647 antibody at 200 nM; human primary non-activated CD4+ CD25- T-cells, donor 7900C
[20] = target: human GITR expressed on the cell surface (human) (UniProt Q9Y5U5); assay: flow cytometry, AF647 antibody at 200 nM; human primary CD4+ CD25+ T-cells, donor 8700C
[21] = target: human GITR expressed on the cell surface (human) (UniProt Q9Y5U5); assay: flow cytometry, AF647 antibody at 200 nM; human primary non-activated CD4+ CD25- T-cells, donor 8700C
[22] = target: human GITR expressed on the cell surface (human) (UniProt Q9Y5U5); assay: flow cytometry, AF647 antibody at 200 nM; human primary non-activated CD8+ CD25- T-cells, donor 2700*
[23] = target: cynomolgus monkey GITR expressed on the cell surface (Macaca fascicularis (cynomolgus monkey)); assay: flow cytometry, AF647 antibody at 200 nM; cynomolgus primary CD4+ CD69+ T-cells, donor 58948
[24] = target: cynomolgus monkey GITR expressed on the cell surface (Macaca fascicularis (cynomolgus monkey)); assay: flow cytometry, AF647 antibody at 200 nM; cynomolgus primary non-activated CD8+ CD69- T-cells, donor 58945
[25] = target: cynomolgus monkey GITR expressed on the cell surface (Macaca fascicularis (cynomolgus monkey)); assay: flow cytometry, AF647 antibody at 200 nM; cynomolgus primary CD8+ CD69+ T-cells, donor 58948
[26] = target: human GITR expressed on the cell surface (human) (UniProt Q9Y5U5); assay: flow cytometry, AF647 antibody at 200 nM; human primary CD8+ CD25+ T-cells, donor 7900C
[27] = target: hGITR.mmH (soluble monomeric recombinant human GITR ectodomain protein) (human); assay: blocking ELISA: 1.5 nM hGITR.mmH pre-incubated with antibody (up to 3 µM), binding to plate-coated hGITR-L
[28] = target: cynomolgus monkey GITR expressed on the cell surface (Macaca fascicularis (cynomolgus monkey)); assay: flow cytometry, AF647 antibody at 200 nM; cynomolgus primary CD8+ CD69+ T-cells, donor 58945
[29] = target: cynomolgus monkey GITR expressed on the cell surface (Macaca fascicularis (cynomolgus monkey)); assay: flow cytometry, AF647 antibody at 200 nM; cynomolgus primary non-activated CD4+ CD69- T-cells, donor 58948
[30] = target: cynomolgus monkey GITR expressed on the cell surface (Macaca fascicularis (cynomolgus monkey)); assay: flow cytometry, AF647 antibody at 200 nM; cynomolgus primary non-activated CD4+ CD69- T-cells, donor 58947
[31] = target: human GITR expressed on the cell surface (human) (UniProt Q9Y5U5); assay: flow cytometry, AF647 antibody at 200 nM; human primary non-activated CD4+ CD25- T-cells, donor 2700*
[32] = target: cynomolgus monkey GITR expressed on the cell surface (Macaca fascicularis (cynomolgus monkey)); assay: flow cytometry, AF647 antibody at 200 nM; cynomolgus primary non-activated CD4+ CD69- T-cells, donor 58945
[33] = target: human GITR expressed on the cell surface (human) (UniProt Q9Y5U5); assay: flow cytometry on Jurkat/hCD20/hGITR cells, 18 pM to 300 nM
[34] = target: cynomolgus monkey GITR expressed on the cell surface (Macaca fascicularis (cynomolgus monkey)); assay: flow cytometry, AF647 antibody at 200 nM; cynomolgus primary CD8+ CD69+ T-cells, donor 58947
[35] = target: cynomolgus monkey GITR expressed on the cell surface (Macaca fascicularis (cynomolgus monkey)); assay: flow cytometry on Jurkat/hCD20/MfGITR cells; max MFI over secondary antibody alone
[36] = target: cynomolgus monkey GITR expressed on the cell surface (Macaca fascicularis (cynomolgus monkey)); assay: flow cytometry, AF647 antibody at 200 nM; cynomolgus primary non-activated CD8+ CD69- T-cells, donor 58948
[37] = target: human GITR expressed on the cell surface (human) (UniProt Q9Y5U5); assay: flow cytometry, AF647 antibody at 200 nM; human primary non-activated CD8+ CD25- T-cells, donor 26001
[38] = target: cynomolgus monkey GITR expressed on the cell surface (Macaca fascicularis (cynomolgus monkey)); assay: flow cytometry, AF647 antibody at 200 nM; cynomolgus primary non-activated CD8+ CD69- T-cells, donor 58946
[39] = target: human GITR expressed on the cell surface (human) (UniProt Q9Y5U5); assay: flow cytometry, AF647 antibody at 200 nM; human primary CD8+ CD25+ T-cells, donor 26001

Sequence of human GITR expressed on the cell surface (human) (Q9Y5U5 26-241 limits assumed): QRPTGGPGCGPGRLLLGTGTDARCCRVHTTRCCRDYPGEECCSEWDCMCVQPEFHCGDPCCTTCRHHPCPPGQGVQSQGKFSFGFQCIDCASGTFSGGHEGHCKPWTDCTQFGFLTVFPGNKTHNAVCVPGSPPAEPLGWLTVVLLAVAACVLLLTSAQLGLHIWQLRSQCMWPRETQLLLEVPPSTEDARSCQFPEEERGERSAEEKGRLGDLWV
Sequence of Jurkat/hCD20 cells (human CD20, no GITR; negative control cell line) (human) (P11836 whole entry): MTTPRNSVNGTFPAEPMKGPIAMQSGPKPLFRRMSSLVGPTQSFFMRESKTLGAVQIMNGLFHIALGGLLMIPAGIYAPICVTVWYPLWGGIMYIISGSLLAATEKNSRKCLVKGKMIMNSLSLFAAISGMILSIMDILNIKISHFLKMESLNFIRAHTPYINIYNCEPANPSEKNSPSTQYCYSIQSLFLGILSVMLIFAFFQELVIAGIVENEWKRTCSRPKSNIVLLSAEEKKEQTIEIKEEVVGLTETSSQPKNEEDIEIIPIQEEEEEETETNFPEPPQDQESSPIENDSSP
Sequence of hGITR.mmH (soluble monomeric recombinant human GITR ectodomain protein) (human) (chain, as listed by the source limits assumed): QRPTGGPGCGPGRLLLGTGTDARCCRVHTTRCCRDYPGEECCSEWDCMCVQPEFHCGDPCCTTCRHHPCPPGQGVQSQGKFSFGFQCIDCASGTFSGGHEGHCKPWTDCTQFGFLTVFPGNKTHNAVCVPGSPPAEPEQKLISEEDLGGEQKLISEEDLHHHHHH

Max MFI [1]: 1970 MFI
Max MFI [2]: 1230 MFI
Max MFI [3]: 1070 MFI
Max MFI [4]: 1990 MFI
Max MFI [5]: 650 MFI
Max MFI [6]: 1360 MFI
Fold Binding [7]: 1.09 fold
Max MFI [8]: 803 MFI
Max MFI [9]: 2080 MFI
Max MFI [10]: 1110 MFI
Max MFI [11]: 650 MFI
Max MFI [12]: 1780 MFI
Fold Binding [13]: 1.15 fold
Max MFI [14]: 2280 MFI
Max MFI [15]: 601 MFI
Max MFI [16]: 1230 MFI
Max MFI [17]: 827 MFI
Max MFI [18]: 1140 MFI
Max MFI [19]: 1330 MFI
Max MFI [20]: 1920 MFI
Max MFI [21]: 1060 MFI
Max MFI [22]: 1130 MFI
Max MFI [23]: 1030 MFI
Max MFI [24]: 565 MFI
Max MFI [25]: 1130 MFI
Max MFI [26]: 2090 MFI
% Max Inhibition [27]: -6%
Max MFI [28]: 1090 MFI
Max MFI [29]: 817 MFI
Max MFI [30]: 825 MFI
Max MFI [31]: 1410 MFI
Max MFI [32]: 730 MFI
Max MFI [33]: 1090 MFI
Max MFI [34]: 921 MFI
Fold Binding [35]: 1.1 fold
Max MFI [36]: 512 MFI
Max MFI [37]: 644 MFI
Max MFI [38]: 455 MFI
Max MFI [39]: 1100 MFI
Substance: IgG1 isotype control (antibody)
